The text below walks through data of patent US20040229826A1, “Dose-dense & sequential adjuvant cancer chemotherapy” (priority 2002, published 2004).

Experimental: Designed for outpatients, all chemotherapy (FIG. 1) was given intravenously, starting within 84 days from primary surgery. […]
Disease-free survival (DFS), which was the primary study endpoint, was measured from study entry until local recurrence, distant relapse or death without relapse, whichever occurred first. […] The secondary endpoint of overall survival (OS) was measured from study entry until death from any cause; surviving patients were censored at the date of last contact. […]

B1: filgrastim (protein, chains of the INN, looked up)
chain: MTPLGPASSLPQSFLLKCLEQVRKIQGDGAALQEKLCATYKLCHPEELVLLGHSLGIPWAPLSSCPSQALQLAGCLSQLHSGLFLYQGLLQALEGISPELGPTLDTLQLDVADFATTIWQQMEELGMAPALQPTQGAMPAFASAFQRRAGGVLVASHLQSFLEVSYRVLRHLAQP
Consider B1, for which the incidence of leukemia entry (influence of filgrastim) was “not influenced”. For the setting “use of filgrastim in the dose dense regimens”, the granulocyte toxicity entry is recorded as “statistically significant decrease”.
